Results from US20050282743A1, “Molecular interactions in cells” (Arbor Vita Corporation, priority 2001, published 2005).

What was measured:
[1] = biological target: T1, GST-KIAA0300 PDZ domain 1 (UniProt O15018); experiment: G' assay; also: key of the grades not given here
T1 sequence (looked up): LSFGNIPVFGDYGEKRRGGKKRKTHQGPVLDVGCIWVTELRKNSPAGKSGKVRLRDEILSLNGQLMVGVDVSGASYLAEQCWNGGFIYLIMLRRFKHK

[2] = biological target: T2, GST-KIAA0300 PDZ domain 2 (UniProt O15018); experiment: G' assay; also: key of the grades not given here
T2 sequence (looked up): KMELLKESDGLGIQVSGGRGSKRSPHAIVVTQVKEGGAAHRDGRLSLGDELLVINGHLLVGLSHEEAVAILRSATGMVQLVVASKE

[3] = biological target: GST-DLG-1 PDZ domains 1 to 3 (Example 6) (Homo sapiens) (UniProt Q12959); experiment: G assay competition vs 10 uM biotin-KV1.3 20-mer; competitor 100 uM
[4] = biological target: GST-DLG-1 PDZ domains 1 to 3 (Example 6) (Homo sapiens) (UniProt Q12959); experiment: G assay competition vs 10 uM biotin-CD95 20-mer; competitor 100 uM
[5] = biological target: GST-DLG-1 PDZ domains 1 to 3 (Example 6) (Homo sapiens) (UniProt Q12959); experiment: G assay competition vs 20 uM biotin-CD46 20-mer; competitor 100 uM
[6] = biological target: GST-DLG-1 PDZ domains 1 to 3 (Example 6) (Homo sapiens) (UniProt Q12959); experiment: G assay competition vs 20 uM biotin-CLASP-2 20-mer; competitor 100 uM
[7] = biological target: GST-p55T PDZ domain 1 (Homo sapiens (Human)) (UniProt Q9NZW5); experiment: G' assay; also: key of the grades not given here
[8] = biological target: GST-DLG-1 PDZ domains 1 to 3 (Example 6) (Homo sapiens) (UniProt Q12959); experiment: G assay competition vs 20 uM biotin-CD46 20-mer; competitor 500 uM
[9] = biological target: GST-PSD95 PDZ domains 1, 2, 3 (Homo sapiens) (UniProt P78352); experiment: as above
[10] = biological target: GST-DLG-1 PDZ domains 1 to 3 (Example 6) (Homo sapiens) (UniProt Q12959); experiment: G assay competition vs 20 uM biotin-CLASP-2 20-mer; competitor 500 uM
[11] = biological target: GST-PSD95 PDZ domains 1, 2, 3 (Homo sapiens) (UniProt P78352); experiment: as above
[12] = biological target: GST-PSD95 PDZ domains 1, 2, 3 (Homo sapiens) (UniProt P78352); experiment: G assay competition vs 10 uM biotin-KV1.3 20-mer; competitor 500 uM
[13] = biological target: GST-DLG-1 PDZ domains 1 to 3 (Example 6) (Homo sapiens) (UniProt Q12959); experiment: G assay competition vs 20 uM biotin-CD46 20-mer; competitor 1000 uM
[14] = biological target: GST-PSD95 PDZ domains 1, 2, 3 (Homo sapiens) (UniProt P78352); experiment: as above
[15] = biological target: GST-DLG-1 PDZ domains 1 to 3 (Example 6) (Homo sapiens) (UniProt Q12959); experiment: G assay competition vs 10 uM biotin-CD95 20-mer; competitor 500 uM
[16] = biological target: GST-PSD95 PDZ domains 1, 2, 3 (Homo sapiens) (UniProt P78352); experiment: as above
[17] = biological target: GST-DLG-1 PDZ domains 1 to 3 (Example 6) (Homo sapiens) (UniProt Q12959); experiment: G assay competition vs 10 uM biotin-CD95 20-mer; competitor 1000 uM
[18] = biological target: GST-PSD95 PDZ domains 1, 2, 3 (Homo sapiens) (UniProt P78352); experiment: as above
[19] = biological target: GST-PSD95 PDZ domains 1, 2, 3 (Homo sapiens) (UniProt P78352); experiment: G assay competition vs 10 uM biotin-KV1.3 20-mer; competitor 1000 uM
[20] = biological target: GST-DLG-1 PDZ domains 1 to 3 (Example 6) (Homo sapiens) (UniProt Q12959); experiment: G assay competition vs 20 uM biotin-CLASP-2 20-mer; competitor 1000 uM
[21] = biological target: GST-PSD95 PDZ domains 1, 2, 3 (Homo sapiens) (UniProt P78352); experiment: as above
[22] = biological target: GST-BAI-1 Associated Protein PDZ domain 2 (Mus musculus (Mouse)) (UniProt Q6RHR9); experiment: G' assay; also: key of the grades not given here
[23] = biological target: GST-TIP1 PDZ domain 1 (Table 9 insert) (Homo sapiens (Human)) (UniProt O14907); experiment: G' assay; also: key of the grades not given here
[24] = biological target: GST-DLG-1 PDZ domains 1 to 3 (Example 6) (Homo sapiens) (UniProt Q12959); experiment: G assay competition vs 20 uM biotin-CLASP-2 20-mer; competitor 50 uM
[25] = biological target: GST-DLG-1 PDZ domains 1 to 3 (Example 6) (Homo sapiens) (UniProt Q12959); experiment: G assay competition vs 20 uM biotin-CD46 20-mer; competitor 50 uM
[26] = biological target: GST-DLG-1 PDZ domains 1 to 3 (Example 6) (Homo sapiens) (UniProt Q12959); experiment: G assay competition vs 10 uM biotin-KV1.3 20-mer; competitor 50 uM
[27] = biological target: GST-DLG-1 PDZ domains 1 to 3 (Example 6) (Homo sapiens) (UniProt Q12959); experiment: G assay competition vs 10 uM biotin-CD95 20-mer; competitor 50 uM

GST-PSD95 PDZ domains 1, 2, 3 (Homo sapiens), sequence (P78352 62-395): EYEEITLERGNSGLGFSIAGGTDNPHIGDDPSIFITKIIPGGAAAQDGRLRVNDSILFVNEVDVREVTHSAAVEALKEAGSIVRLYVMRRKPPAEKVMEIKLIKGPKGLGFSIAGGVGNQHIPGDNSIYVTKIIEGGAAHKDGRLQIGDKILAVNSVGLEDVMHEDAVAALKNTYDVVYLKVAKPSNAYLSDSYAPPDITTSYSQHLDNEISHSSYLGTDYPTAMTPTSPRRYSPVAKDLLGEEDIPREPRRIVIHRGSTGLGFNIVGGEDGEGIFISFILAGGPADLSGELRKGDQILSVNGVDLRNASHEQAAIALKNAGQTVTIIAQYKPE
GST-BAI-1 Associated Protein PDZ domain 2 (Mus musculus (Mouse)), sequence (Q6RHR9 455-558): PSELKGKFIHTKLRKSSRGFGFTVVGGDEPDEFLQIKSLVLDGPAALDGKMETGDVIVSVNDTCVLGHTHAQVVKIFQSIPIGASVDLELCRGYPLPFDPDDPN
GST-TIP1 PDZ domain 1 (Table 9 insert) (Homo sapiens (Human)), sequence (O14907 14-116): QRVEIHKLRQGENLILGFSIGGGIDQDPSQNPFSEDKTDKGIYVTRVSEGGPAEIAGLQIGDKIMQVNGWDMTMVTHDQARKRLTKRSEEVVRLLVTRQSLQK

Substance: AdenoE4 typ9 (peptide)
- Classification [1]: 1 A450 class

Substance: presenilin-2 (peptide)
- Classification [1]: 1 A450 class
- Classification [2]: 1 A450 class

Substance: CD46 8-mer (peptide)
- % binding of labelled 20-mer [3]: 63%
- % binding of labelled 20-mer [4]: 68%
- % binding of labelled 20-mer [5]: 90%
- % binding of labelled 20-mer [6]: 90%

Substance: MINT-1 (peptide)
- Classification [1]: 4 A450 class

Substance: presenilin-1 (peptide)
- Classification [7]: 1 A450 class

Substance: CLASP-2 3-mer (peptide)
- % binding of labelled 20-mer [8]: 72%
- % binding of labelled 20-mer [9]: 75%
- % binding of labelled 20-mer [10]: 61%
- % binding of labelled 20-mer [11]: 82%
- % binding of labelled 20-mer [12]: 81%
- % binding of labelled 20-mer [13]: 45%
- % binding of labelled 20-mer [14]: 59%
- % binding of labelled 20-mer [15]: 51%
- % binding of labelled 20-mer [16]: 55%
- % binding of labelled 20-mer [17]: 46%
- % binding of labelled 20-mer [18]: 55%
- % binding of labelled 20-mer [19]: 50%
- % binding of labelled 20-mer [20]: 59%
- % binding of labelled 20-mer [21]: 63%

Substance: MINT-2 (peptide)
- Classification [7]: 1 A450 class
- Classification [1]: 3 A450 class

Substance: ephrin B2 (peptide)
- Classification [1]: 2 A450 class

Substance: HPV E6 #18 (peptide)
- Classification [22]: 5 A450 class
- Classification [23]: 4 A450 class

Substance: CSPG4 (chondroitin sulfae proteoglycan 4, melanoma-associated) (peptide)
- Classification [1]: 2 A450 class

Substance: unlabeled 8 amino acid peptide corresponding to the C-terminus of CD95
- % binding of labelled 20-mer [24]: 73%
- % binding of labelled 20-mer [25]: 110%
- % binding of labelled 20-mer [26]: 84%
- % binding of labelled 20-mer [27]: 70%
